Results: publication PMC3730723, “A Network of HMG-box Transcription Factors Regulates Sexual Cycle in the Fungus Podospora anserina”

T1: PaHMG5 (HMG5His) (Podospora anserina, UniProt B2AM17 1-559)
T1 sequence: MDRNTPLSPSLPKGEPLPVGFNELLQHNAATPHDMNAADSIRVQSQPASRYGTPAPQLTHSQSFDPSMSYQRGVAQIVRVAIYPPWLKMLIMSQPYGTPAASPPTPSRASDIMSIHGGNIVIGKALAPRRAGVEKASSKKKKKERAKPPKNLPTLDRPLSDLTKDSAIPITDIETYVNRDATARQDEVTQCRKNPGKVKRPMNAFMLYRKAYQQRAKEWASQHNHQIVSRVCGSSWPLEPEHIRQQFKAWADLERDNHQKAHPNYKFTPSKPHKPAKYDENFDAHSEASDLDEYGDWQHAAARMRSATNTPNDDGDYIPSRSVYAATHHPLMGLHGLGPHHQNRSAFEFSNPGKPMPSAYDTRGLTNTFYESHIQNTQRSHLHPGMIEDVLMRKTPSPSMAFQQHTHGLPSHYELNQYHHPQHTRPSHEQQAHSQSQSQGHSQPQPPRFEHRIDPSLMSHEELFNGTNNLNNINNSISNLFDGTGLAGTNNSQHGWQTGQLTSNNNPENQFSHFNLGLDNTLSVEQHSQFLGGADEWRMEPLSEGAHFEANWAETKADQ

B1: PaHMG8 probe (dsDNA)
DNA 1: GTGCAAACGCGGGGACAAAGAAAAAGTCTGGTGC
DNA 2: GGCACCAGACTTTTTCTTTGTCCCCGCGTTTGCA
B2: PaHMG5 probe (dsDNA)
DNA 1: GTAGAGAAGCCGGAACAAAGAAAGGAACAAGCAG
DNA 2: GCTGCTTGTTCCTTTCTTTGTTCCGGCTTCTCTA
B3: FMR1 probe (dsDNA)
DNA 1: GTGCAGGATAGCCAACAAAGAAATGACTGCCACG
DNA 2: GCGTGGCAGTCATTTCTTTGTTGGCTATCCTGCA
B4: KEF1 (PaHMG9) probe (dsDNA)
DNA 1: GATCGTAGCTATAGACAAAGAAAGCAACAGATAG
DNA 2: GCTATCTGTTGCTTTCTTTGTCTATAGCTACGAT
B5: FPR1 probe (dsDNA)
DNA 1: GGTGAAGGTGAATAACAAAGAAATACACTGACGG
DNA 2: GCCGTCAGTGTATTTCTTTGTTATTCACCTTCAC
B6: mtHMG1 probe (dsDNA)
DNA 1: GGAGGGCATCTTCAACAAAGAATCTCGGCAAATA
DNA 2: GTATTTGCCGAGATTCTTTGTTGAAGATGCCCTC

What follows are binders tested against T1, PaHMG5 (HMG5His) (assay: EMSA; 20 mM Tris pH 9.0, 500 mM NaCl, 5 mM beta-mercaptoethanol, 5 mM MgCl2, 5% glycerol, 1.25 ug poly(dI-dC), 11 ul, on ice; 6% gel in 0.25x TBE). Settings: protein: recombinant; tags: C-terminal His6; label: 5'-32P; 33 bp duplex, 1 nt 5' G overhang on each strand.

Does B1 bind?
Result: binds

Does B2 bind?
Result: binds

Does B3 bind?
Result: binds

Does B4 bind?
Result: binds

Does B5 bind?
Result: binds

Does B6 bind?
Result: binds
